Reference: publication PMC5881488 (The Journal of Cell Biology, 2018)
Each block holds one molecule with its values, some of them ahead of it.

B2: MBP-Ana2 NT-2PM (aa 1–317, T33E/S38D) (domain or fragment, Drosophila, UniProt Q9XZ31 1-317, looked up)
chain: MFVPETEDMLPRLAPRPSAAVPMGHTNEIIGPEVPEVDILFGQPPQDPQMQPQQPNHAHQESSPRAAPTFASWKKQMLPRVNFSPILATELGPRTAPSSNSPCSSKEYQVMPRDRNYASDAQQTTNHMNCNAGGYNAEPKQQAYQSRRLSSSSNADVLTICAGTQTDPFNPSPPRKSLPQVVYSDIDVSNLANKSDLAALVSLVESVRHEQQQLRNLCEMILEQQQRAKPEAISKASSTTGTQCDILTTNQAGRRLSPIMQDYIAEEEEPLPPPQARVIPQFPSPRPHPPIAQSTGYRANTPQAKRIPQLAKPNTEK

Assays:
[1] = target: MBP-Ana2 NT-2PM (aa 1–317, T33E/S38D) (Drosophila) (UniProt Q9XZ31); test: pull-down
pull-down = target: the molecule itself; test: pull-down
[2] = target: B2; test: pull-down
[3] = target: Plk4-GFP lacking PB3 (Drosophila); test: co-IP
[4] = target: Plk4-GFP lacking the putative CC and PB3 (Drosophila); test: co-IP
GST-Ana2, full length = target: T1, GST-Ana2, full length (Drosophila, UniProt Q9XZ31 1-420); test: pull-down
T1 sequence (looked up): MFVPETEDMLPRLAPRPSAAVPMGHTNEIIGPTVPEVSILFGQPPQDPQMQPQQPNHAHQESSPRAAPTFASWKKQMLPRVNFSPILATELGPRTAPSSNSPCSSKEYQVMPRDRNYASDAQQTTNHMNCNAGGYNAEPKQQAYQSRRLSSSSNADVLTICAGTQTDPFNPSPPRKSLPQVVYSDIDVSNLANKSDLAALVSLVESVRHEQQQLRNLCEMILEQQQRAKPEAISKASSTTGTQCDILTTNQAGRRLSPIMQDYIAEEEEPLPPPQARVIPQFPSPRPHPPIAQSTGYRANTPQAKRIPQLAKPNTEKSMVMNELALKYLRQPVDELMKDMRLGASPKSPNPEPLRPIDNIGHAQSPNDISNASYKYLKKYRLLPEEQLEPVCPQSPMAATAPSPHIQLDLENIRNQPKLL

fold of His6-Ana2 CT pulled down relative to WT NT with WT CT [1]: 3.5 fold
Molecule: His6-Ana2 CT-3PM (aa 318–420, S318/S370/S373 phosphomimetic) (from UniProt Q9XZ31 318-420) (domain or fragment)

B1: MBP-Ana2 NT (aa 1–317), wild type (domain or fragment, Drosophila, UniProt Q9XZ31 1-317, looked up)
chain: MFVPETEDMLPRLAPRPSAAVPMGHTNEIIGPTVPEVSILFGQPPQDPQMQPQQPNHAHQESSPRAAPTFASWKKQMLPRVNFSPILATELGPRTAPSSNSPCSSKEYQVMPRDRNYASDAQQTTNHMNCNAGGYNAEPKQQAYQSRRLSSSSNADVLTICAGTQTDPFNPSPPRKSLPQVVYSDIDVSNLANKSDLAALVSLVESVRHEQQQLRNLCEMILEQQQRAKPEAISKASSTTGTQCDILTTNQAGRRLSPIMQDYIAEEEEPLPPPQARVIPQFPSPRPHPPIAQSTGYRANTPQAKRIPQLAKPNTEK
binding result (pull-down): binds

Molecule: B2
binding result (pull-down): binds

binding result [2]: binds
B3: His6-Ana2 CT (aa 318–420), wild type (domain or fragment, Drosophila, UniProt Q9XZ31 318-420, looked up)
chain: SMVMNELALKYLRQPVDELMKDMRLGASPKSPNPEPLRPIDNIGHAQSPNDISNASYKYLKKYRLLPEEQLEPVCPQSPMAATAPSPHIQLDLENIRNQPKLL

fold decrease of co-precipitated Ana2 on deletion of PB3 [3]: 2 fold
further fold decrease of co-precipitated Ana2 relative to deletion of PB3 alone [4]: 2 fold
B4: V5-Ana2 (anastral spindle 2), full length, wild type (natural protein)
chain: MFVPETEDMLPRLAPRPSAAVPMGHTNEIIGPTVPEVSILFGQPPQDPQMQPQQPNHAHQESSPRAAPTFASWKKQMLPRVNFSPILATELGPRTAPSSNSPCSSKEYQVMPRDRNYASDAQQTTNHMNCNAGGYNAEPKQQAYQSRRLSSSSNADVLTICAGTQTDPFNPSPPRKSLPQVVYSDIDVSNLANKSDLAALVSLVESVRHEQQQLRNLCEMILEQQQRAKPEAISKASSTTGTQCDILTTNQAGRRLSPIMQDYIAEEEEPLPPPQARVIPQFPSPRPHPPIAQSTGYRANTPQAKRIPQLAKPNTEKSMVMNELALKYLRQPVDELMKDMRLGASPKSPNPEPLRPIDNIGHAQSPNDISNASYKYLKKYRLLPEEQLEPVCPQSPMAATAPSPHIQLDLENIRNQPKLL

binding result (GST-Ana2, full length): binds
B5: Plk4 1–317-FLAG-His6 (domain or fragment, Drosophila, UniProt O97143 1-317, looked up)
chain: MLSNRAFGETIEDYEVQHLLGKGGFATVYKARCLHTHQDVAIKMIDKKLIQGTGLTNRVRQEVEIHSRLKHPSVLQLYTFFQDANYVYLVLELAHNGELHRYMNHIARPFTETEAASILKQVVAGLLYLHSHNIMHRDISLSNLLLSREMHVKIADFGLATQLKRPDERHMTMCGTPNYISPEVVSRTSHGLPADVWSVGCMLYTLLVGRPPFETDAVQSTLNKVVMSEYIMPAHLSYEAQDLINKLLKKLPHERITLEAVLCHPFMLKCSNGGHSAPGALNVFSQSMESGDSGIITFASSDSRNSQQIRSVENSGP
